Laboratory results published in PMC8352940 (Nature Communications, 2021).
Substitutions are numbered along the chain they refer to.

Legend:
[1] = biological target: SARS-CoV-2 RBD-Fc fusion protein (SARS-CoV-2, UniProt P0DTC2); assay: ELISA; conditions: both partners purified
[2] = biological target: SARS-CoV-2 RBD without the Fc fragment (SARS-CoV-2, UniProt P0DTC2); assay: ELISA; conditions: both partners purified

B1: nCoVFab1 (Fab, V domains shown)
VH: QVQLVESGGGLVQPGGSLRLSCAASGFTVSSNYMSWVRQAPGKGLEWVSVIYSGGSTYYADSVKGRFTISRDNSKNTLYLQMNSLRAEDTAVYYCARGDGSDDYYYGMDVWGQGTTVTVSS
VL: QSVVTQPPSVSGAQGQRVFISCTGNGANIGMGYDVHWYQQLPGRAPKLLIFGNTNRPSGVPDRFSASRSGTSASLAITGLQTADEADYYCQSYDGNLRASVFGGGTKLTVL
notes: source: E. coli strain HB2151, purified (nickel-nitrilotriacetic acid resin)
Q: With B1 as the binder, how does the EC50 [1] read?
A: ~16 nM

B2: nCoVmab1_(gHmL) (antibody, V domains shown)
VH: B1 VH with Q1E, D102Y, D103Y
VL: B1 VL
Q: Does B2 bind [2]?
A: no binding

B3: nCoVmab1_(gHgL) (antibody, V domains shown)
VH: B1 VH with Q1E, D102Y, D103Y
VL: QSVVTQPPSVSGAPGQRVTISCTGSSSNIGAGYDVHWYQQLPGTAPKLLIYGNSNRPSGVPDRFSGSKSGTSASLAITGLQAEDEADYYCQSYDSSLSGWVFGGGTKLTVL
Q: Does B3 bind [2]?
A: no binding

B4: nCoVFab2 (Fab, V domains shown)
VH: B1 VH with Q1E, E6Q, L11V, G16R
VL: B3 VL with S2A, V4L, P8S, I29V, W100S
notes: as for B1
Q: Which EC50 [1] does the source give for B4 here?
A: ~63 nM

B5: nCoVmab2 (antibody, V domains shown)
VH: B1 VH with Q1E, E6Q, L11V, G16R
VL: B3 VL with S2A, V4L, P8S, I29V, W100S
notes: also called nCoVFab2 in IgG1 format; source: 293F cells, purified (Protein A resin)
Q: Which EC50 [2] does the source give for B5 here?
A: 0.84 nM

B6: nCoVmab1 (antibody, V domains shown)
VH: B1 VH
VL: B1 VL
notes: also called nCoVFab1 in IgG1 format; source: 293F cells, purified (Protein A resin)
Q: With B6 as the binder, how does the EC50 [2] read?
A: 0.56 nM

B7: nCoVmab1gFR (antibody, V domains shown)
VH: B1 VH with Q1E
VL: B3 VL with S26G, S27A, A31M, S54T, S95G, S96N, S98R, G99A, W100S
Q: Does B7 bind [2]?
A: binds
